Laboratory results published in patent US20220064276A1.
Positions count from the first letter of the chain named. One block for each binder: values may come before it.

Columns and labels:
[1] = biological target: LTBP-proTGFβ1 in the LN229 CAGA12 assay of Table 20 (endogenous or over-expressed murine LTBP1 not stated); test: cell-based or functional assay
[2] = biological target: human LRRC33-proTGFβ1 complex (human) (UniProt Q86YC3); test: Octet, antibody immobilized
human LRRC33-proTGFβ1 complex (human), sequence (Q86YC3 19-650 limits assumed, chain 1 of 2): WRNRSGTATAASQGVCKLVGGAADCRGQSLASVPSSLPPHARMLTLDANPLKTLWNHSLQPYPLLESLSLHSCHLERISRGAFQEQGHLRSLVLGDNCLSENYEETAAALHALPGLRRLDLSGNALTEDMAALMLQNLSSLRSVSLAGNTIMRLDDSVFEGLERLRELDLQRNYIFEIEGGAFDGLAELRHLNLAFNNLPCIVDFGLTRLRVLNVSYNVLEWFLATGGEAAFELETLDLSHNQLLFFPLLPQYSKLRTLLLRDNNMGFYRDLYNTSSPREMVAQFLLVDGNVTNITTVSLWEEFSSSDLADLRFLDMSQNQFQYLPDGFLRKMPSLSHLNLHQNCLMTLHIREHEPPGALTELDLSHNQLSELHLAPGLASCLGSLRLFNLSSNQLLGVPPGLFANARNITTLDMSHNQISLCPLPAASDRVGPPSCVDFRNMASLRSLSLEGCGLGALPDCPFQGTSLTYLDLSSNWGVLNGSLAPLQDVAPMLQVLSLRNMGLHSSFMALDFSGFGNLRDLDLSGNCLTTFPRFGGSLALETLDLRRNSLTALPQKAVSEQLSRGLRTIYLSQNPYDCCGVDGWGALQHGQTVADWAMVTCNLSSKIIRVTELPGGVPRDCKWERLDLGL
human LRRC33-proTGFβ1 complex (human), sequence (chain, as listed by the source limits assumed, chain 2 of 2): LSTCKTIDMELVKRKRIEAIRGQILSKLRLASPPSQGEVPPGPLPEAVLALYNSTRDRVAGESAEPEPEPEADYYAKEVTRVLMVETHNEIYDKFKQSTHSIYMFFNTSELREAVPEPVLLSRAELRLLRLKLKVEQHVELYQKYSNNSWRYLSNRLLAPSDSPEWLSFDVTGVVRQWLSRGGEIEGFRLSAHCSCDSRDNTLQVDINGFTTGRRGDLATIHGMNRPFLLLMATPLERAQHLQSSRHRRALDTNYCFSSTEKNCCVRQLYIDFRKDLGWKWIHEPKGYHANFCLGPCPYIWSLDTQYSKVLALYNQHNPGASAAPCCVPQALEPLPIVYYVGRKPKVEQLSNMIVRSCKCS

B1: SR-AB47-HuFab (Fab, V domains shown)
VH: QVQLVESGGGVVQPGRSLRLSCAASGFTFRSYVMHWVRQAPGKGLEWVAVISHEGSGKYYADSVKGRFTISRDNSKNTLYLQMNSLRAEDTAVYYCARPRIAARRGGFGSWGQGTLVTVSS
VL: NFMLTQPHSVSESPGKTVTISCTRSSGNIDYNYVQWYQQRPGSSPTTVIYEDNVRPSGVPDRFSGSIDSSSNSASLTISGLKTEDEADYYCQSYDYDNQAVVFGGGTKLTVL
IC50 (CAGA12 luciferase) [1]: 0.186 nM

B2: SR-AB50-HuFab (Fab, V domains shown)
VH: B1 VH with S110T
VL: B1 VL with Y96S, A100R
IC50 (CAGA12 luciferase) [1]: 11 nM

B5: SR-AB41 Fab (Fab, V domains shown)
VH: B1 VH with G57L, S110Y
VL: B1 VL with Y31N, V54Q
IC50 (CAGA12 luciferase) [1]: 0.486 nM

B6: SR-AB46-HuFab (Fab, V domains shown)
VH: B1 VH
VL: B1 VL with Y96S, A100R
IC50 (CAGA12 luciferase) [1]: 0.495 nM

B8: SR-AB43-HuFab (Fab, V domains shown)
VH: B1 VH with G57L, S110Y
VL: B1 VL with Y96S, A100R
IC50 (CAGA12 luciferase) [1]: 1.08 nM

B14: SR-AB42-HuFab (Fab, V domains shown)
VH: B1 VH with G57L, S110Y
VL: B1 VL with Y31N, V54Q, N98T, A100G
IC50 (CAGA12 luciferase) [1]: 0.667 nM

B16: SR-AB22 (antibody, IgG1, V domains shown)
VH: B1 VH with G57L, R98V, S110Y
VL: B1 VL with Y31N, V54Q, Y96S, A100G
Response (nm) [2]: 0.133 nm

B18: SR-AB49-HuFab (Fab, V domains shown)
VH: B1 VH
VL: B1 VL with S93G, Y96W, N98T, A100G
IC50 (CAGA12 luciferase) [1]: 1.02 nM

B19: SR-AB48-HuFab (Fab, V domains shown)
VH: B1 VH
VL: B1 VL with N98T, A100G
IC50 (CAGA12 luciferase) [1]: 0.523 nM

B21: SR-AB23 Fab (Fab, V domains shown)
VH: B1 VH with G57L, S110Y
VL: B1 VL with Y31N, V54Q, Y96S, A100G
IC50 (CAGA12 luciferase) [1]: 8.53 nM

Next, values leading:

IC50 (CAGA12 luciferase) [1]: 5.87 nM
B3: SR-AB54-HuFab (Fab, V domains shown)
VH: B1 VH with R98L
VL: B1 VL with Y96S, A100R

IC50 (CAGA12 luciferase) [1]: 0.536 nM
B4: SR-AB55-HuFab (Fab, V domains shown)
VH: B1 VH with R98L
VL: B1 VL

IC50 (CAGA12 luciferase) [1]: 0.439 nM
B7: SR-AB56-HuFab (Fab, V domains shown)
VH: B1 VH with R98L
VL: B1 VL with N98T, A100G

IC50 (CAGA12 luciferase) [1]: 0.775 nM
B9: SR-AB57-HuFab (Fab, V domains shown)
VH: B1 VH with R98L
VL: B1 VL with S93G, Y96W, N98T, A100G

IC50 (CAGA12 luciferase) [1]: 0.459 nM
B10: SR-AB52-HuFab (Fab, V domains shown)
VH: B1 VH with S110T
VL: B1 VL with N98T, A100G

IC50 (CAGA12 luciferase) [1]: 0.535 nM
B11: SR-AB51-HuFab (Fab, V domains shown)
VH: B1 VH with S110T
VL: B1 VL

IC50 (CAGA12 luciferase) [1]: 0.47 nM
B12: SR-AB61-HuFab (Fab, V domains shown)
VH: B1 VH with R98L, S110T
VL: B1 VL with S93G, Y96W, N98T, A100G

IC50 (CAGA12 luciferase) [1]: 4.86 nM
B13: SR-AB58-HuFab (Fab, V domains shown)
VH: B1 VH with R98L, S110T
VL: B1 VL with Y96S, A100R

IC50 (CAGA12 luciferase) [1]: 0.742 nM
B15: SR-AB60-HuFab (Fab, V domains shown)
VH: B1 VH with R98L, S110T
VL: B1 VL with N98T, A100G

IC50 (CAGA12 luciferase) [1]: 0.195 nM
B17: SR-AB59-HuFab (Fab, V domains shown)
VH: B1 VH with R98L, S110T
VL: B1 VL

IC50 (CAGA12 luciferase) [1]: 1.18 nM
B20: SR-AB53-HuFab (Fab, V domains shown)
VH: B1 VH with S110T
VL: B1 VL with S93G, Y96W, N98T, A100G
